Measurements published in article doi:10.1101/2021.05.10.443397.

Biological target: clamp-stabilised KoRV envelope (Env-clamp) (koala retrovirus (KoRV-A))
Assay: SEC + other: negative-stain electron microscopy

“clamp-stabilised KoRV envelope (Env-clamp)” was tested. Which stoichiometry N did it give?
The stoichiometry N was 3.
